The target of assay [1] is huFcγRIIb on CHO^huFcγRIIb cells. Briefly: flow cytometry on CHO^huFcγRIIb cells, anti-huCD32 mAb + PE-GAM F(ab')2; histogram peak at about 1.5e3; parental CHO cells: 86 printed. (In general: In flow cytometry, cells or beads pass a laser one at a time.)
Assay [2] concerns the target huEGFR on the cell surface (3T3^huEGFR, wild-type HEK293 (EGFR+), A431 cells) (human) (UniProt P00533). Briefly: flow cytometry on 3T3^huEGFR cells, PE-conjugated anti-huEGFR mAb; second number of the panel, given to the second cell line of the key (narrow histogram) [cont.) g, upper panel].
Assay [3] shares this target. Briefly: flow cytometry on MDA-MB-231 cells, PE-conjugated anti-huEGFR mAb; first number of the panel, given to the first cell line of the key (broad, most shifted histogram) [cont.) g, upper panel].
The target is the same in assay [4]. Briefly: flow cytometry on 3T3^huEGFR cells, PE-conjugated anti-huEGFR mAb; histogram peak at about 2e3; parental 3T3 cells: 176 printed.
In assay [5] the target is PD-L1 on MDA-MB-231 cells (Homo sapiens) (UniProt Q9NZQ7). Briefly: flow cytometry on MDA-MB-231 cells, APC-conjugated anti-huPD-L1 mAb; histogram peak at about 3e3 against control at about 2.5e2; 3T3^huEGFR cells (PD-L1 negative): 0 printed [cont.) g, lower panel].
PD-L1 on MDA-MB-231 cells (Homo sapiens), sequence (Q9NZQ7 19-290 limits assumed): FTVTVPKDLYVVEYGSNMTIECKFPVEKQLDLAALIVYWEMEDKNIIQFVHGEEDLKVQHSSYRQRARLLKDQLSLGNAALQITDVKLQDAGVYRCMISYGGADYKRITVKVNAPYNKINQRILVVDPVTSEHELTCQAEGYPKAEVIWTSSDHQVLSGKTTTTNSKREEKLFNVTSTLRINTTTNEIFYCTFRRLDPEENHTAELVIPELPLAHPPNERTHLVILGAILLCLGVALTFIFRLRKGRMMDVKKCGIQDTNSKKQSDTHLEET

Take “anti-huCD32 mAb (clone FUN-2); the sheet prints only the axis label huFcγRIIb (antibody)”: in assay [1], the MFI was 1040.

Take “anti-huEGFR PE-conjugated mAb (clone EGFR.1); the sheet prints only the axis label huEGFR (antibody)”: the MFI was 1820 in assay [2], 5820 in assay [3] and 1730 in assay [4].

In assay [5], “anti-huPD-L1 APC-conjugated mAb (clone MIH1); the sheet prints only the axis label PD-L1 (antibody)” showed an MFI of 3260.

The values above are taken from patent US20240092942A1.
